Reference: patent US20030200555A1

Biological target: 2081/anti-NF IgG
Experiment: ECL (ORIGEN Analyzer), competition with biotinylated-SEVNF

Binder: SEVNL [SEVNL peptide]
- fold less effective in competition than SEVNF: 100 fold
